Laboratory results reported in paper PMC9482650, “Quantitative fragmentomics allow affinity mapping of interactomes” (Nature Communications, 2022).

T1: LIN7B, Q9HAP6
T1 sequence (Q9HAP6 88-185, limits assumed, looked up): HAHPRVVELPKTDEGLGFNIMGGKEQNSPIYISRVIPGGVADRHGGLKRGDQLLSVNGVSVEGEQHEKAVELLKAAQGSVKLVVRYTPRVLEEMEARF

T2: NHERF3_1, Q5T2W1
T2 sequence (Q5T2W1 4-100, limits assumed, looked up): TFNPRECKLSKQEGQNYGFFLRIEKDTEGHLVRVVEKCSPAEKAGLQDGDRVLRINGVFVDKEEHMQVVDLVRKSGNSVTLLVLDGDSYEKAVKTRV

T3: SNTG1, Q9NSN8
T3 sequence (Q9NSN8 52-150, limits assumed, looked up): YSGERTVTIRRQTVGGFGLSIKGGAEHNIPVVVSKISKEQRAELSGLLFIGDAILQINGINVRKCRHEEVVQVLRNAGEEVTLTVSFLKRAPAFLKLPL

T4: LRRC7, Q96NW7
T4 sequence (Q96NW7 1440-1537, limits assumed, looked up): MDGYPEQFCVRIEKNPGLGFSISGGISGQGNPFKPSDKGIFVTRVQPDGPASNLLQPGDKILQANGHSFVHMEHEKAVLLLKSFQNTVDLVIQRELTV

T5: PCLO, Q9Y6V0
T5 sequence (Q9Y6V0 4491-4600, limits assumed, looked up): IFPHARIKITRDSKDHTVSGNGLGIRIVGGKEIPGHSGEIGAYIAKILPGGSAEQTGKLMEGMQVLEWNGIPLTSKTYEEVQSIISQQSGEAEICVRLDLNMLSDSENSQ

T6: CARD11, Q9BXL7
T6 sequence (Q9BXL7 662-765, limits assumed, looked up): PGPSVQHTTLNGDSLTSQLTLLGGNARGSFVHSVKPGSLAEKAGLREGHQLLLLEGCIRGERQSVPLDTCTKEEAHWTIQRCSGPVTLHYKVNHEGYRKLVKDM

T7: HTRA3, P83110
T7 sequence (P83110 354-453, limits assumed, looked up): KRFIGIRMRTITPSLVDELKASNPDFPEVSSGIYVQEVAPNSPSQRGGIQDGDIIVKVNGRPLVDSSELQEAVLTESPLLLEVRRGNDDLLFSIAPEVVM

T8: NHERF3_3, Q5T2W1
T8 sequence (Q5T2W1 238-333, limits assumed, looked up): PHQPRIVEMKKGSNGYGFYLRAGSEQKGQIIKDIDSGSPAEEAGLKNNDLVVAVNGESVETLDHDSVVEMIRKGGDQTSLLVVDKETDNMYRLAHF

T9: LNX2_2, Q8N448
T9 sequence (Q8N448 334-432, limits assumed, looked up): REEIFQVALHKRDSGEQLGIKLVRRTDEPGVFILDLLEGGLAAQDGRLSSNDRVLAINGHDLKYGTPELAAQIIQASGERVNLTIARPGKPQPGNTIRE


biological target: Inadl_10, Q8NI35; test: holdup assay; parameters: key: below the threshold = too weak to quantify, mostly under pKd 3.1 to 4; conditions: plain residues with an end cap or a label only (N-terminal biotin on a linker: ado-ado)
Sequence (Q8NI35 1673-1763): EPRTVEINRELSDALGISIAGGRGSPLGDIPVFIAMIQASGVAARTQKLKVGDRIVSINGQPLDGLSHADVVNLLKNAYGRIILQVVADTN

pKd | Binder
below the threshold | VKRNSKETVV [MARCHF3, Q86UD3]
below the threshold | LESTTVGTSV [KARS1, Q15046]

biological target: GRIP2_7, Q9C0E4; test: holdup assay; parameters: key: below the threshold = too weak to quantify, mostly under pKd 3.1 to 4; conditions: plain residues with an end cap or a label only (N-terminal biotin on a linker: ado-ado)
Sequence (Q9C0E4 934-1023): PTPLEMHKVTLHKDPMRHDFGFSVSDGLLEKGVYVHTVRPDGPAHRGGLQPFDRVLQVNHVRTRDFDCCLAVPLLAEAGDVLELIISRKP

pKd | Binder
below the threshold | VKRNSKETVV [MARCHF3, Q86UD3]
below the threshold | LESTTVGTSV [KARS1, Q15046]

biological target: GRIP2_5, Q9C0E4; test: holdup assay; parameters: key: below the threshold = too weak to quantify, mostly under pKd 3.1 to 4; conditions: plain residues with an end cap or a label only (N-terminal biotin on a linker: ado-ado)
Sequence (Q9C0E4 544-642): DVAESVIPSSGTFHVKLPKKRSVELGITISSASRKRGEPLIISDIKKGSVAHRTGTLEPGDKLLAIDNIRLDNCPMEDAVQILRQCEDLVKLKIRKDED

pKd | Binder
below the threshold | VKRNSKETVV [MARCHF3, Q86UD3]
below the threshold | LESTTVGTSV [KARS1, Q15046]

biological target: Inadl_5, Q8NI35; test: holdup assay; parameters: key: below the threshold = too weak to quantify, mostly under pKd 3.1 to 4; conditions: plain residues with an end cap or a label only (N-terminal biotin on a linker: ado-ado)
Sequence (Q8NI35 673-780): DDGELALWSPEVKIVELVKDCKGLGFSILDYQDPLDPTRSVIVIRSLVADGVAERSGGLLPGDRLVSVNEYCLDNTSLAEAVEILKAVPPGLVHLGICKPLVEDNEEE

pKd | Binder
3.67 | VKRNSKETVV [MARCHF3, Q86UD3]
below the threshold | LESTTVGTSV [KARS1, Q15046]

biological target: IL16_3, Q14005; test: holdup assay; parameters: key: below the threshold = too weak to quantify, mostly under pKd 3.1 to 4; conditions: plain residues with an end cap or a label only (N-terminal biotin on a linker: ado-ado)
Sequence (Q14005 1107-1207): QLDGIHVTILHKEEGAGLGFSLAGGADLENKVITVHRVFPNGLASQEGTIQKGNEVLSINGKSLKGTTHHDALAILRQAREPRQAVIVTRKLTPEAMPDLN

pKd | Binder
below the threshold | VKRNSKETVV [MARCHF3, Q86UD3]
below the threshold | LESTTVGTSV [KARS1, Q15046]

biological target: SCRIB_2, Q14160; test: holdup assay; parameters: key: below the threshold = too weak to quantify, mostly under pKd 3.1 to 4; conditions: plain residues with an end cap or a label only (N-terminal biotin on a linker: ado-ado)
Sequence (Q14160 857-960): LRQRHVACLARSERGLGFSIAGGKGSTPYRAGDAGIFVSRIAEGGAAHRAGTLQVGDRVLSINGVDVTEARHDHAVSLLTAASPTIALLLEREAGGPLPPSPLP

pKd | Binder
3.89 | VKRNSKETVV [MARCHF3, Q86UD3]
4.46 | LESTTVGTSV [KARS1, Q15046]

biological target: T1, LIN7B, Q9HAP6; test: holdup assay; parameters: key: below the threshold = too weak to quantify, mostly under pKd 3.1 to 4; conditions: plain residues with an end cap or a label only (N-terminal biotin on a linker: ado-ado)

pKd | Binder
3.86 | VKRNSKETVV [MARCHF3, Q86UD3]
3.79 | LESTTVGTSV [KARS1, Q15046]

biological target: NHERF4_1, Q86UT5-2; test: holdup assay; parameters: key: below the threshold = too weak to quantify, mostly under pKd 3.1 to 4; conditions: plain residues with an end cap or a label only (N-terminal biotin on a linker: ado-ado)
Sequence (Q86UT5 other isoform, or with tags, fused parts or gaps): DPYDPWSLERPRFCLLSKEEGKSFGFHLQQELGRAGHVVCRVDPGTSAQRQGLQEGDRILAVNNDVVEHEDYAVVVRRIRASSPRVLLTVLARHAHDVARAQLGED

pKd | Binder
below the threshold | VKRNSKETVV [MARCHF3, Q86UD3]
below the threshold | LESTTVGTSV [KARS1, Q15046]

biological target: T2, NHERF3_1, Q5T2W1; test: holdup assay; parameters: key: below the threshold = too weak to quantify, mostly under pKd 3.1 to 4; conditions: plain residues with an end cap or a label only (N-terminal biotin on a linker: ado-ado)

pKd | Binder
below the threshold | VKRNSKETVV [MARCHF3, Q86UD3]
4.13 | LESTTVGTSV [KARS1, Q15046]

biological target: PICK1, Q9NRD5; test: holdup assay; parameters: key: below the threshold = too weak to quantify, mostly under pKd 3.1 to 4; conditions: plain residues with an end cap or a label only (N-terminal biotin on a linker: ado-ado)
Sequence (Q9NRD5 17-115): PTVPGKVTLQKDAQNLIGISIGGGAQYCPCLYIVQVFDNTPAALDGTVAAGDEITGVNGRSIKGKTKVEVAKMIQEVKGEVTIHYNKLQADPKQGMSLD

pKd | Binder
below the threshold | VKRNSKETVV [MARCHF3, Q86UD3]
below the threshold | LESTTVGTSV [KARS1, Q15046]

biological target: T3, SNTG1, Q9NSN8; test: holdup assay; parameters: key: below the threshold = too weak to quantify, mostly under pKd 3.1 to 4; conditions: plain residues with an end cap or a label only (N-terminal biotin on a linker: ado-ado)

pKd | Binder
4.13 | VKRNSKETVV [MARCHF3, Q86UD3]
3.7 | LESTTVGTSV [KARS1, Q15046]

biological target: DLG5_1, Q8TDM6; test: holdup assay; parameters: key: below the threshold = too weak to quantify, mostly under pKd 3.1 to 4; conditions: plain residues with an end cap or a label only (N-terminal biotin on a linker: ado-ado)
Sequence (Q8TDM6 617-713): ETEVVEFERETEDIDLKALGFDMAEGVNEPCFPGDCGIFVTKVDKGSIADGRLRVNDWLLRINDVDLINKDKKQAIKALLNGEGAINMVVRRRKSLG

pKd | Binder
below the threshold | VKRNSKETVV [MARCHF3, Q86UD3]
below the threshold | LESTTVGTSV [KARS1, Q15046]

biological target: DLG4_3, P78352; test: holdup assay; parameters: key: below the threshold = too weak to quantify, mostly under pKd 3.1 to 4; conditions: plain residues with an end cap or a label only (N-terminal biotin on a linker: ado-ado)
Sequence (P78352 306-403): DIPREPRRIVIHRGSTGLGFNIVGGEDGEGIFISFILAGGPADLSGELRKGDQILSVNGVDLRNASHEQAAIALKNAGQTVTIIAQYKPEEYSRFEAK

pKd | Binder
4.94 | VKRNSKETVV [MARCHF3, Q86UD3]
3.58 | LESTTVGTSV [KARS1, Q15046]

biological target: T4, LRRC7, Q96NW7; test: holdup assay; parameters: key: below the threshold = too weak to quantify, mostly under pKd 3.1 to 4; conditions: plain residues with an end cap or a label only (N-terminal biotin on a linker: ado-ado)

pKd | Binder
3.79 | VKRNSKETVV [MARCHF3, Q86UD3]
below the threshold | LESTTVGTSV [KARS1, Q15046]

biological target: T5, PCLO, Q9Y6V0; test: holdup assay; parameters: key: below the threshold = too weak to quantify, mostly under pKd 3.1 to 4; conditions: plain residues with an end cap or a label only (N-terminal biotin on a linker: ado-ado)

pKd | Binder
below the threshold | VKRNSKETVV [MARCHF3, Q86UD3]
below the threshold | LESTTVGTSV [KARS1, Q15046]

biological target: T6, CARD11, Q9BXL7; test: holdup assay; parameters: key: below the threshold = too weak to quantify, mostly under pKd 3.1 to 4; conditions: plain residues with an end cap or a label only (N-terminal biotin on a linker: ado-ado)

pKd | Binder
below the threshold | VKRNSKETVV [MARCHF3, Q86UD3]
below the threshold | LESTTVGTSV [KARS1, Q15046]

biological target: NHERF4_2, Q86UT5; test: holdup assay; parameters: key: below the threshold = too weak to quantify, mostly under pKd 3.1 to 4; conditions: plain residues with an end cap or a label only (N-terminal biotin on a linker: ado-ado)
Sequence (Q86UT5 220-308): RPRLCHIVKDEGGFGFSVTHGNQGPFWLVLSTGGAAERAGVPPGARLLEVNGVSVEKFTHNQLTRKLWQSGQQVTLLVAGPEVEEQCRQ

pKd | Binder
below the threshold | VKRNSKETVV [MARCHF3, Q86UD3]
below the threshold | LESTTVGTSV [KARS1, Q15046]

biological target: MAGI2_4, Q86UL8; test: holdup assay; parameters: key: below the threshold = too weak to quantify, mostly under pKd 3.1 to 4; conditions: plain residues with an end cap or a label only (N-terminal biotin on a linker: ado-ado)
Sequence (Q86UL8 772-865): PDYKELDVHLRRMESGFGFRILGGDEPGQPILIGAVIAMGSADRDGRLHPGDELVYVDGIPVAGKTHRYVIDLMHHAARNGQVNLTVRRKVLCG

pKd | Binder
4.21 | VKRNSKETVV [MARCHF3, Q86UD3]
4.31 | LESTTVGTSV [KARS1, Q15046]

biological target: LAP2, Q96RT1; test: holdup assay; parameters: key: below the threshold = too weak to quantify, mostly under pKd 3.1 to 4; conditions: plain residues with an end cap or a label only (N-terminal biotin on a linker: ado-ado)
Sequence (Q96RT1 other isoform, or with tags, fused parts or gaps): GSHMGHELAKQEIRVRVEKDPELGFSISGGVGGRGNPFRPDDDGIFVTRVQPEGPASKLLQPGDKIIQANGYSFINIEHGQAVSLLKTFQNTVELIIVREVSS

pKd | Binder
3.54 | VKRNSKETVV [MARCHF3, Q86UD3]
3.92 | LESTTVGTSV [KARS1, Q15046]

biological target: LDB3, O75112; test: holdup assay; parameters: key: below the threshold = too weak to quantify, mostly under pKd 3.1 to 4; conditions: plain residues with an end cap or a label only (N-terminal biotin on a linker: ado-ado)
Sequence (O75112 1-94): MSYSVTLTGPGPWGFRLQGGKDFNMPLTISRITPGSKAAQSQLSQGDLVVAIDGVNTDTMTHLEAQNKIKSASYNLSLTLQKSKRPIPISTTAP

pKd | Binder
below the threshold | VKRNSKETVV [MARCHF3, Q86UD3]
below the threshold | LESTTVGTSV [KARS1, Q15046]

biological target: T7, HTRA3, P83110; test: holdup assay; parameters: key: below the threshold = too weak to quantify, mostly under pKd 3.1 to 4; conditions: plain residues with an end cap or a label only (N-terminal biotin on a linker: ado-ado)

pKd | Binder
below the threshold | VKRNSKETVV [MARCHF3, Q86UD3]
below the threshold | LESTTVGTSV [KARS1, Q15046]

biological target: GOPC, Q9HD26; test: holdup assay; parameters: key: below the threshold = too weak to quantify, mostly under pKd 3.1 to 4; conditions: plain residues with an end cap or a label only (N-terminal biotin on a linker: ado-ado)

pKd | Binder
below the threshold | VKRNSKETVV [MARCHF3, Q86UD3]
below the threshold | LESTTVGTSV [KARS1, Q15046]

biological target: T8, NHERF3_3, Q5T2W1; test: holdup assay; parameters: key: below the threshold = too weak to quantify, mostly under pKd 3.1 to 4; conditions: plain residues with an end cap or a label only (N-terminal biotin on a linker: ado-ado)

pKd | Binder
below the threshold | VKRNSKETVV [MARCHF3, Q86UD3]
below the threshold | LESTTVGTSV [KARS1, Q15046]

biological target: GRID2IP_2, A4D2P6; test: holdup assay; parameters: key: below the threshold = too weak to quantify, mostly under pKd 3.1 to 4; conditions: plain residues with an end cap or a label only (N-terminal biotin on a linker: ado-ado)
Sequence (A4D2P6 272-370): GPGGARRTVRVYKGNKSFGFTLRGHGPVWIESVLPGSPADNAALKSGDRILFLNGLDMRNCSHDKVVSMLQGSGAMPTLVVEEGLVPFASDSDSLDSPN

pKd | Binder
below the threshold | VKRNSKETVV [MARCHF3, Q86UD3]
4.06 | LESTTVGTSV [KARS1, Q15046]

biological target: T9, LNX2_2, Q8N448; test: holdup assay; parameters: key: below the threshold = too weak to quantify, mostly under pKd 3.1 to 4; conditions: plain residues with an end cap or a label only (N-terminal biotin on a linker: ado-ado)

pKd | Binder
5.2 | VKRNSKETVV [MARCHF3, Q86UD3]
4.39 | LESTTVGTSV [KARS1, Q15046]

biological target: SCRIB_3, Q14160; test: holdup assay; parameters: key: below the threshold = too weak to quantify, mostly under pKd 3.1 to 4; conditions: plain residues with an end cap or a label only (N-terminal biotin on a linker: ado-ado)
Sequence (Q14160 999-1103): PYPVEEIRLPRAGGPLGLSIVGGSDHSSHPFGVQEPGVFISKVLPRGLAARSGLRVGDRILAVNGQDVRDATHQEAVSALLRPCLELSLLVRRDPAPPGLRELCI

pKd | Binder
4.51 | VKRNSKETVV [MARCHF3, Q86UD3]
4.4 | LESTTVGTSV [KARS1, Q15046]

biological target: TJP2_1, Q9UDY2; test: holdup assay; parameters: key: below the threshold = too weak to quantify, mostly under pKd 3.1 to 4; conditions: plain residues with an end cap or a label only (N-terminal biotin on a linker: ado-ado)
Sequence (Q9UDY2 24-128): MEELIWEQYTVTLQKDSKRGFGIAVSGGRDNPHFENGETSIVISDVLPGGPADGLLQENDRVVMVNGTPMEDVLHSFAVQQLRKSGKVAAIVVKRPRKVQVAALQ

pKd | Binder
3.8 | VKRNSKETVV [MARCHF3, Q86UD3]
below the threshold | LESTTVGTSV [KARS1, Q15046]

biological target: SNX27, Q96L92; test: holdup assay; parameters: key: below the threshold = too weak to quantify, mostly under pKd 3.1 to 4; conditions: plain residues with an end cap or a label only (N-terminal biotin on a linker: ado-ado)

pKd | Binder
5.28 | VKRNSKETVV [MARCHF3, Q86UD3]
4.45 | LESTTVGTSV [KARS1, Q15046]
